Measured values from the supplement of paper PMC10567573.

B1: PKD2L1 (parent)
chain: SGPEAARAGGWVSGEEFYMLTRRV

Variants of: B1
Experiment: protein stability index of a GFP-peptide fusion (GPS, HEK-293T) (PSI 1-6); higher = more stable
Conditions: c terminus: a fixed tail appended
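Also: lentivirally expressed fusions sorted by FACS into six bins by GFP to DsRed ratio, PSI derived from sequencing read proportions per bin multiplied by bin number.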

Variant	protein stability index
SGPEAARAGGWVSGMEFYMLTRRV	1.48
SGPEAARAGGWVSGDEFYMLTRRV	2.54
SGPEAARAGGWVSGFEFYMLTRRV	3.15
SGPEAARAGGWVSQEEFYMLTRRV	2.57
SGPEAARAGGWVSIEEFYMLTRRV	2.63
SGPEAARAGGWVSMEEFYMLTRRV	2.46
SGPEAARAGGWVSLEEFYMLTRRV	2.04
SGPEAARAGGWVSWEEFYMLTRRV	2.19
SGPEAARAGGWVSAEEFYMLTRRV	3.24
SGPEAARAGGWVSDEEFYMLTRRV	3.91
SGPEAARAGGWVSFEEFYMLTRRV	1.76
SGPEAARAGGWVSNEEFYMLTRRV	3.21
SGPEAARAGGWVSSEEFYMLTRRV	2.6
SGPEAARAGGWVSKEEFYMLTRRV	2.52
SGPEAARAGGWVSVEEFYMLTRRV	2.27
SGPEAARAGGWVSTEEFYMLTRRV	3
SGPEAARAGGWVSHEEFYMLTRRV	2.4
SGPEAARAGGWVSEEEFYMLTRRV	3.18
SGPEAARAGGWVSREEFYMLTRRV	3.17
SGPEAARAGGWVSPEEFYMLTRRV	3.09
SGPEAARAGGWVSYEEFYMLTRRV	2.08
SGPEAARAGGWVSGEEFYMLCRRV	2.29
SGPEAARAGGWVSGEEFYMLHRRV	2.27
SGPEAARAGGWVSGEEFYMLIRRV	1.75

Variant	protein stability index
SGPEAARAGGWVSGEEFYMLNRRV	2.9
SGPEAARAGGWVSGEEFYMLKRRV	3.71
SGPEAARAGGWVSGEEFYMLVRRV	1.57
SGPEAARAGGWVSGEEFYMLLRRV	2.62
SGPEAARAGGWVSGEEFYMLYRRV	1.6
SGPEAARAGGWVSGEEFYMLGRRV	3.08
SGPEAARAGGWVSGEEFYMLDRRV	3.76
SGPEAARAGGWVSGEEFYMLARRV	2.41
SGPEAARAGGWVSGEEFYMLRRRV	3.1
SGPEAARAGGWVSGEEFYMLWRRV	2.12
SGPEAARAGGWVSGEEFYMLFRRV	1.5
SGPEAARAGGWVSGEEFYMLMRRV	2.67
SGPEAARAGGWVSGEEFYMLPRRV	3.33
SGPEAARAGGWVSGEEFYMLQRRV	2.94
SGPEAARAGGWVSGEEFYMLERRV	3.29
SGPEAARAGGWVSGEEFYMLSRRV	2.62
SGPEAARAGGWVSGEEKYMLTRRV	3.39
SGPEAARAGGWVSGEETYMLTRRV	3.37
SGPEAARAGGWVSGEEWYMLTRRV	2.14
SGPEAARAGGWVSGEELYMLTRRV	2.85
SGPEAARAGGWVSGEEIYMLTRRV	2.67
SGPEAARAGGWVSGEEYYMLTRRV	2.79
SGPEAARAGGWVSGEEMYMLTRRV	3.27
SGPEAARAGGWVSGEEAYMLTRRV	4.1

Variant	protein stability index
SGPEAARAGGWVSGEEPYMLTRRV	3.89
SGPEAARAGGWVSGEEVYMLTRRV	2.5
SGPEAARAGGWVSGEEQYMLTRRV	4.05
SGPEAARAGGWVSGEEHYMLTRRV	3.33
SGPEAARAGGWVSGEEEYMLTRRV	4.26
SGPEAARAGGWVSGEESYMLTRRV	3.58
SGPEAARAGGWVSGEENYMLTRRV	3.89
SGPEAARAGGWVSGEEGYMLTRRV	4.13
SGPEAARAGGWVSGEERYMLTRRV	3.68
SGPEAARAGGWVSGEECYMLTRRV	3.03
SGPEAARAGGWVSGEEDYMLTRRV	4.59
SGPEAARAGGWVSGEEFYMLTRFV	2.06
SGPEAARAGGWVSGEEFYMLTRKV	2.45
SGPEAARAGGWVSGEEFYMLTREV	2.84
SGPEAARAGGWVSGEEFYMLTRTV	2.07
SGPEAARAGGWVSGEEFYMLTRQV	1.92
SGPEAARAGGWVSGEEFYMLTRCV	2.14
SGPEAARAGGWVSGEEFYMLTRMV	1.84
SGPEAARAGGWVSGEEFYMLTRAV	1.85
SGPEAARAGGWVSGEEFYMLTRPV	2.62
SGPEAARAGGWVSGEEFYMLTRNV	2.5
SGPEAARAGGWVSGEEFYMLTRGV	2.93
SGPEAARAGGWVSGEEFYMLTRSV	2.97
SGPEAARAGGWVSGEEFYMLTRDV	3.49

Variant	protein stability index
SGPEAARAGGWVSGEEFYMLTRHV	2.05
SGPEAARAGGWVSGEEFYMLTRLV	1.53
SGPEAARAGGWVSGEEFYMLTRVV	2.16
SGPEAARAGGWVSGEQFYMLTRRV	2.25
SGPEAARAGGWVSGETFYMLTRRV	2.26
SGPEAARAGGWVSGEWFYMLTRRV	2.42
SGPEAARAGGWVSGEKFYMLTRRV	2.5
SGPEAARAGGWVSGEGFYMLTRRV	2.6
SGPEAARAGGWVSGEPFYMLTRRV	1.78
SGPEAARAGGWVSGESFYMLTRRV	2.73
SGPEAARAGGWVSGERFYMLTRRV	1.93
SGPEAARAGGWVSGENFYMLTRRV	2.42
SGPEAARAGGWVSGEVFYMLTRRV	1.64
SGPEAARAGGWVSGEAFYMLTRRV	1.92
SGPEAARAGGWVSGEFFYMLTRRV	2.75
SGPEAARAGGWVSGEDFYMLTRRV	2.29
SGPEAARAGGWVSGEMFYMLTRRV	2.7
SGPEAARAGGWVSGELFYMLTRRV	1.76
SGPEAARAGGWVSGECFYMLTRRV	1.56
SGPEAARAGGWVSGEIFYMLTRRV	2.23
SGPEAARAGGWVSGEYFYMLTRRV	2.02
SGPEAARAGGWVSGEHFYMLTRRV	1.64
